From US20210246166A1 (Bayer, published 2021)
Numbered stars: 1 amine (or outer) side, 2 acyl side, 3 side chain; on linkers, the order of the positions; unused ones are H or OH. Bridge positions count the residues as written; N and C are the ends. Square brackets hold non-standard residues; d marks the D form. Ends that are not written are not given here. * marks the point of attachment. X10 = (2R)‑2‑amino‑3‑(trifluoromethylsulfanyl)propanoic acid, O=C([C@H](CSC(F)(F)F)N[*:1])[*:2]; X15 = (3S)‑2‑azaspiro(4.4)nonane‑3‑carboxylic acid, O=C([C@@H]1CC2(CCCC2)CN1[*:1])[*:2]; (R)‑Pyrrolidine‑3‑acetic acid = O=C(C[C@H]1CCN([*:1])C1)[*:2]; X5 = Tetrahydropyranyl‑4‑acetic acid, O=C(CC1CCOCC1)*; Oic = O=C(O)[C@@H]1C[C@@H]2CCCC[C@@H]2N1; βPro(3R) = O=C([C@@H]1CCN([*:1])C1)[*:2]; tBuAla = CC(C)(C)C[C@H](N)C(=O)O; Aad = N[C@@H](CCCC(=O)O)C(=O)O; Pen = CC(C)(S)[C@H](N)C(=O)O; NMeC = CN[C@@H](CS)C(=O)O; NPhGly = O=C(O)CNc1ccccc1; Orn = NCCC[C@H](N)C(=O)O; Abu = CC[C@H](N)C(=O)O; βAla = NCCC(=O)O; Sar = CNCC(=O)O

T1: recombinant rat MASP1 active protease (amino acids 302-704, C-terminal His Tag) (rat, UniProt Q8CHN8 302-704)
T1 sequence: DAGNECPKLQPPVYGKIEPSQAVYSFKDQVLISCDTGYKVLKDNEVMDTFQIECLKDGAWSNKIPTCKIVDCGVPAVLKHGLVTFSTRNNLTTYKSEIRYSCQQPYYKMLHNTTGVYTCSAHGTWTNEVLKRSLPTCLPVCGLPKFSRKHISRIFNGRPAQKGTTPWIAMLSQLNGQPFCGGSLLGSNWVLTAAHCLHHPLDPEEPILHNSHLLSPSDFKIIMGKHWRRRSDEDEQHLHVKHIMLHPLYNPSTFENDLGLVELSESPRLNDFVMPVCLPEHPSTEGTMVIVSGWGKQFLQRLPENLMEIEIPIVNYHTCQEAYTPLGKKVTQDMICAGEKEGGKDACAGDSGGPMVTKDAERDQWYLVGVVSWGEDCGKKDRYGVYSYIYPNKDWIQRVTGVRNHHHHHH

T2: recombinant human MASP1 active protease (amino acids 297-699, C-terminal His Tag) (human, UniProt P48740 297-699)
T2 sequence: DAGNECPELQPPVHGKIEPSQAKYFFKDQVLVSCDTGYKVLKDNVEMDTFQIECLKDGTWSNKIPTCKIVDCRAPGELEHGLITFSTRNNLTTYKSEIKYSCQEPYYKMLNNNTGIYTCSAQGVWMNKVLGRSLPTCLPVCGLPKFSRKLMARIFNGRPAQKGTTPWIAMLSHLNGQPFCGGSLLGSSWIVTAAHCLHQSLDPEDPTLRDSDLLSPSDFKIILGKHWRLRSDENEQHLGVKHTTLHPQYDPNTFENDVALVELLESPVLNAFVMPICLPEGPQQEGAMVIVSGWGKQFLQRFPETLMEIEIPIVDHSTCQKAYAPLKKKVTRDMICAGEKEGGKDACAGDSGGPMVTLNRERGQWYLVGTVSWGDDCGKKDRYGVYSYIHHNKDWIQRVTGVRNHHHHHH

B1: Example 530: ((N-Me)G)-IC+SRSLP-(Oic)-I-(Pen)+IP-((R)-Pyrrolidine-3-acetic acid)-OH (peptide)
peptide: [Sar]ICSRSLP[Oic]I[Pen]IP[(R)‑Pyrrolidine‑3‑acetic acid]-OH
modifications: disulfide 3-11; N-terminus assumed
SMILES: CC[C@H](C)[C@H](NC(=O)CNC)C(=O)N[C@H]1CSSC(C)(C)[C@@H](C(=O)N[C@H](C(=O)N2CCC[C@H]2C(=O)N2CC[C@H](CC(=O)O)C2)[C@@H](C)CC)NC(=O)[C@H]([C@@H](C)CC)NC(=O)[C@@H]2C[C@@H]3CCCC[C@@H]3N2C(=O)[C@@H]2CCCN2C(=O)[C@H](CC(C)C)NC(=O)[C@H](CO)NC(=O)[C@H](CCCNC(=N)N)NC(=O)[C@H](CO)NC1=O
B2: Example 529: (Orn)-IC+SRS-((2R)-2-amino-3-(trifluoromethylsulfanyl)propanoic acid)-PPI-(Pen)+IPD-OH (peptide)
peptide: [Orn]ICSRS[X10]PPI[Pen]IPD-OH
modifications: disulfide 3-11; N-terminus assumed
SMILES: CC[C@H](C)[C@H](NC(=O)[C@@H](N)CCCN)C(=O)N[C@H]1CSSC(C)(C)[C@@H](C(=O)N[C@H](C(=O)N2CCC[C@H]2C(=O)N[C@@H](CC(=O)O)C(=O)O)[C@@H](C)CC)NC(=O)[C@H]([C@@H](C)CC)NC(=O)[C@@H]2CCCN2C(=O)[C@@H]2CCCN2C(=O)[C@H](CSC(F)(F)F)NC(=O)[C@H](CO)NC(=O)[C@H](CCCNC(=N)N)NC(=O)[C@H](CO)NC1=O
B3: Example 532: ((N-Me)G)-IC+SRSLP-(Oic)-I-(Pen)+IP-((R)-Pyrrolidine-3-carboxylic acid)-OH (peptide)
peptide: [Sar]ICSRSLP[Oic]I[Pen]IP[βPro(3R)]-OH
modifications: disulfide 3-11; N-terminus assumed
SMILES: CC[C@H](C)[C@H](NC(=O)CNC)C(=O)N[C@H]1CSSC(C)(C)[C@@H](C(=O)N[C@H](C(=O)N2CCC[C@H]2C(=O)N2CC[C@@H](C(=O)O)C2)[C@@H](C)CC)NC(=O)[C@H]([C@@H](C)CC)NC(=O)[C@@H]2C[C@@H]3CCCC[C@@H]3N2C(=O)[C@@H]2CCCN2C(=O)[C@H](CC(C)C)NC(=O)[C@H](CO)NC(=O)[C@H](CCCNC(=N)N)NC(=O)[C@H](CO)NC1=O
B4: Example 531: ((N-Me)G)-IC+SRS-((tBu)A)-P-((3S)-2-azaspiro[4.4]nonane-3-carboxylic acid)-I-(Pen)+IPD-OH (peptide)
peptide: [Sar]ICSRS[tBuAla]P[X15]I[Pen]IPD-OH
modifications: disulfide 3-11; N-terminus assumed
SMILES: CC[C@H](C)[C@H](NC(=O)CNC)C(=O)N[C@H]1CSSC(C)(C)[C@@H](C(=O)N[C@H](C(=O)N2CCC[C@H]2C(=O)N[C@@H](CC(=O)O)C(=O)O)[C@@H](C)CC)NC(=O)[C@H]([C@@H](C)CC)NC(=O)[C@@H]2CC3(CCCC3)CN2C(=O)[C@@H]2CCCN2C(=O)[C@H](CC(C)(C)C)NC(=O)[C@H](CO)NC(=O)[C@H](CCCNC(=N)N)NC(=O)[C@H](CO)NC1=O
B5: Example 306: (beta-A)-IC+SRSLPPIC+IPD-OH (peptide)
peptide: [βAla]ICSRSLPPICIPD-OH
modifications: disulfide 3-11; N-terminus assumed
SMILES: CC[C@H](C)[C@H](NC(=O)CCN)C(=O)N[C@H]1CSSC[C@@H](C(=O)N[C@H](C(=O)N2CCC[C@H]2C(=O)N[C@@H](CC(=O)O)C(=O)O)[C@@H](C)CC)NC(=O)[C@H]([C@@H](C)CC)NC(=O)[C@@H]2CCCN2C(=O)[C@@H]2CCCN2C(=O)[C@H](CC(C)C)NC(=O)[C@H](CO)NC(=O)[C@H](CCCNC(=N)N)NC(=O)[C@H](CO)NC1=O
B6: Example 310: ((N-Me)G)-I-(Pen)+SRS-((tBu)A)-PPI-C+IP-NH2 (peptide)
peptide: [Sar]I[Pen]SRS[tBuAla]PPICIP-NH2
modifications: disulfide 3-11; N-terminus assumed
SMILES: CC[C@H](C)[C@H](NC(=O)CNC)C(=O)N[C@@H]1C(=O)N[C@@H](CO)C(=O)N[C@@H](CCCNC(=N)N)C(=O)N[C@@H](CO)C(=O)N[C@@H](CC(C)(C)C)C(=O)N2CCC[C@H]2C(=O)N2CCC[C@H]2C(=O)N[C@@H]([C@@H](C)CC)C(=O)N[C@H](C(=O)N[C@H](C(=O)N2CCC[C@H]2C(N)=O)[C@@H](C)CC)CSSC1(C)C
B7: Example 313: ((N-Me)G)-IC+SRSLPPIC+I-(Abu)-D-OH (peptide)
peptide: [Sar]ICSRSLPPICI[Abu]D-OH
modifications: disulfide 3-11; N-terminus assumed
SMILES: CC[C@H](NC(=O)[C@@H](NC(=O)[C@@H]1CSSC[C@H](NC(=O)[C@@H](NC(=O)CNC)[C@@H](C)CC)C(=O)N[C@@H](CO)C(=O)N[C@@H](CCCNC(=N)N)C(=O)N[C@@H](CO)C(=O)N[C@@H](CC(C)C)C(=O)N2CCC[C@H]2C(=O)N2CCC[C@H]2C(=O)N[C@@H]([C@@H](C)CC)C(=O)N1)[C@@H](C)CC)C(=O)N[C@@H](CC(=O)O)C(=O)O
B8: Example 311: ((N-Ph)G)-IC+SRS-((tBu)A)-PPI-(Pen)+IP-NH2 (peptide)
peptide: [NPhGly]ICSRS[tBuAla]PPI[Pen]IP-NH2
modifications: disulfide 3-11; N-terminus assumed
SMILES: CC[C@H](C)[C@H](NC(=O)CNc1ccccc1)C(=O)N[C@H]1CSSC(C)(C)[C@@H](C(=O)N[C@H](C(=O)N2CCC[C@H]2C(N)=O)[C@@H](C)CC)NC(=O)[C@H]([C@@H](C)CC)NC(=O)[C@@H]2CCCN2C(=O)[C@@H]2CCCN2C(=O)[C@H](CC(C)(C)C)NC(=O)[C@H](CO)NC(=O)[C@H](CCCNC(=N)N)NC(=O)[C@H](CO)NC1=O
B9: Example 314: AIC+SRS-(AAD)-PP-I-((N-Me)C)+IPD-NH2 (peptide)
peptide: AICSRS[Aad]PPI[NMeC]IPD-NH2
modifications: disulfide 3-11; N-terminus assumed
SMILES: CC[C@H](C)[C@H](NC(=O)[C@H](C)N)C(=O)N[C@H]1CSSC[C@@H](C(=O)N[C@H](C(=O)N2CCC[C@H]2C(=O)N[C@@H](CC(=O)O)C(N)=O)[C@@H](C)CC)N(C)C(=O)[C@H]([C@@H](C)CC)NC(=O)[C@@H]2CCCN2C(=O)[C@@H]2CCCN2C(=O)[C@H](CCCC(=O)O)NC(=O)[C@H](CO)NC(=O)[C@H](CCCNC(=N)N)NC(=O)[C@H](CO)NC1=O
B10: Example 305: (Tetrahydropyranyl-4-acetic acid)-IC+SRS-((tBu)A)-PPI-((N-Me)C)+I-NH2 (peptide)
peptide: X5-ICSRS[tBuAla]PPI[NMeC]I-NH2
modifications: disulfide 2-10
SMILES: CC[C@H](C)[C@H](NC(=O)[C@@H]1CSSC[C@H](NC(=O)[C@@H](NC(=O)CC2CCOCC2)[C@@H](C)CC)C(=O)N[C@@H](CO)C(=O)N[C@@H](CCCNC(=N)N)C(=O)N[C@@H](CO)C(=O)N[C@@H](CC(C)(C)C)C(=O)N2CCC[C@H]2C(=O)N2CCC[C@H]2C(=O)N[C@@H]([C@@H](C)CC)C(=O)N1C)C(N)=O
B11: Example 304: (Tetrahydro-2H-pyran-3-ylacetic acid)-IC+SRSLP-(Oic)-I-(Pen)+IP-NH2 (peptide)
peptide: {Tetrahydro‑2H‑pyran‑3‑ylacetic acid}-ICSRSLP[Oic]I[Pen]IP-NH2
modifications: disulfide 2-10
B12: Example 316: IC+SRS-((tBu)A)-PPI-(Pen)+IP-NH2 (peptide)
peptide: ICSRS[tBuAla]PPI[Pen]IP-NH2
modifications: disulfide 2-10; N-terminus assumed
SMILES: CC[C@H](C)[C@H](N)C(=O)N[C@H]1CSSC(C)(C)[C@@H](C(=O)N[C@H](C(=O)N2CCC[C@H]2C(N)=O)[C@@H](C)CC)NC(=O)[C@H]([C@@H](C)CC)NC(=O)[C@@H]2CCCN2C(=O)[C@@H]2CCCN2C(=O)[C@H](CC(C)(C)C)NC(=O)[C@H](CO)NC(=O)[C@H](CCCNC(=N)N)NC(=O)[C@H](CO)NC1=O
B13: Example 317: ((N-Me)G)-IC+SRSLPPIC+ID-NH2 (peptide)
peptide: [Sar]ICSRSLPPICID-NH2
modifications: disulfide 3-11; N-terminus assumed
SMILES: CC[C@H](C)[C@H](NC(=O)CNC)C(=O)N[C@H]1CSSC[C@@H](C(=O)N[C@H](C(=O)N[C@@H](CC(=O)O)C(N)=O)[C@@H](C)CC)NC(=O)[C@H]([C@@H](C)CC)NC(=O)[C@@H]2CCCN2C(=O)[C@@H]2CCCN2C(=O)[C@H](CC(C)C)NC(=O)[C@H](CO)NC(=O)[C@H](CCCNC(=N)N)NC(=O)[C@H](CO)NC1=O
B14: Example 312: ((N-Me)G)-IC+SRSLPPIC+IPd-OH (peptide)
peptide: [Sar]ICSRSLPPICIP[dD]-OH
modifications: disulfide 3-11; N-terminus assumed
SMILES: CC[C@H](C)[C@H](NC(=O)CNC)C(=O)N[C@H]1CSSC[C@@H](C(=O)N[C@H](C(=O)N2CCC[C@H]2C(=O)N[C@H](CC(=O)O)C(=O)O)[C@@H](C)CC)NC(=O)[C@H]([C@@H](C)CC)NC(=O)[C@@H]2CCCN2C(=O)[C@@H]2CCCN2C(=O)[C@H](CC(C)C)NC(=O)[C@H](CO)NC(=O)[C@H](CCCNC(=N)N)NC(=O)[C@H](CO)NC1=O

Target: T1, recombinant rat MASP1 active protease …
Assay: cell-based or functional assay

Row | Binder | rat MASP1 IC50 [nM]
1 | B1 | 23.3
2 | B2 | 730
3 | B3 | 24.2
4 | B4 | 26

Target: recombinant rat MASP2 active protease (amino acids 296-685, C-terminal His Tag) (rat, UniProt Q9JJS8 296-685)
Assay: cell-based or functional assay

Chain of recombinant rat MASP2 active protease (amino acids 296-685, C-terminal His Tag) (Q9JJS8 other isoform, or with tags, fused parts or gaps limits assumed): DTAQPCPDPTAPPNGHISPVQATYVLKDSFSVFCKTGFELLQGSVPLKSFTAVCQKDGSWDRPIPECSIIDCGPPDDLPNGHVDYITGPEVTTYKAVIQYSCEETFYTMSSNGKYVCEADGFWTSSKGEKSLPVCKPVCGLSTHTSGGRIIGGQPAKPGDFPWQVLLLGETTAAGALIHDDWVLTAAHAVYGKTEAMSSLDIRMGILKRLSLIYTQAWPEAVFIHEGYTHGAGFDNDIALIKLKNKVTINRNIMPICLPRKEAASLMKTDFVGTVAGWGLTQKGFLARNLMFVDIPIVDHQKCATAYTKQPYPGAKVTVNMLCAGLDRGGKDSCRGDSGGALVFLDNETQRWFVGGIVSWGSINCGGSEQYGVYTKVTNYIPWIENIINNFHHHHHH

Row | Binder | rat MASP2 IC50 [nM]
5 | B1 | 18.4
6 | B2 | 100
7 | B3 | 17.6
8 | B4 | 74.1

Target: recombinant human MASP2 active protease (amino acids 297-686, C-terminal His Tag) (human, UniProt O00187 297-686)
Assay: cell-based or functional assay

Chain of recombinant human MASP2 active protease (amino acids 297-686, C-terminal His Tag) (O00187 other isoform, or with tags, fused parts or gaps limits assumed): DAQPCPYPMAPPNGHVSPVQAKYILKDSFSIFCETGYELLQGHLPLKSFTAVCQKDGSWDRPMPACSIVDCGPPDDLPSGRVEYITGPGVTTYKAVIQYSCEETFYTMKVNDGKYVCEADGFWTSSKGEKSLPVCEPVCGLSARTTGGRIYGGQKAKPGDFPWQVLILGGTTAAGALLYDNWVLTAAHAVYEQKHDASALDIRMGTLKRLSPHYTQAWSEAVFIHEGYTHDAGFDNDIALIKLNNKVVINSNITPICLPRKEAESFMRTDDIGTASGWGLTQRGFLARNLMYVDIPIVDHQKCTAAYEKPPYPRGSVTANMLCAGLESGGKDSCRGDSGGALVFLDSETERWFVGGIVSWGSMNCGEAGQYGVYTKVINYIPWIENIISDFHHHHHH

Row | Binder | human MASP2 IC50 [nM]
9 | B5 | 450
10 | B6 | 3000
11 | B7 | 250
12 | B8 | 49
13 | B9 | 260
14 | B10 | 9.4
15 | B11 | 27
16 | B12 | 660
17 | B13 | 210
18 | B14 | 530

Target: T2, recombinant human MASP1 active protease …
Assay: cell-based or functional assay

Row | Binder | human MASP1 IC50 [nM]
19 | B5 | 20
20 | B6 | 20
21 | B7 | 21
22 | B8 | 20
23 | B9 | 21
24 | B10 | 19
25 | B11 | 19
26 | B12 | 21
27 | B13 | 22
28 | B14 | 21
